Patent US20110118131A1 (published 2011)
Substitutions are numbered along the chain they refer to. In names and notes the source's numbering stands.

How the values were obtained:
[1] = biological target: T1, Ep-CAM (UniProt P16422 24-265, limits assumed); experiment: Biacore, Fab periplasmic extract
T1 construct: Immobilised on the Biacore chip; construct not described
T1 sequence (looked up): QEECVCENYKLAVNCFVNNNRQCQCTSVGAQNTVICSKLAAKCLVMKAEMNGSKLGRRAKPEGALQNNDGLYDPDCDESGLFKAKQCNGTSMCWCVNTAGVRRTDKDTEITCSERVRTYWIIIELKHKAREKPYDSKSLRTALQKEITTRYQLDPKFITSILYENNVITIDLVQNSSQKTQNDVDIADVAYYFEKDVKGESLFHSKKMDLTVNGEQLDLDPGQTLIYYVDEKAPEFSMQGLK

[2] = biological target: T2, IL-1β (UniProt P01584 117-269); experiment: Biacore, Fab periplasmic extract; -1 = no binding by the table's footnote
T2 construct: Antigen of XPA23

B1: ING-1 Fab, light chain M56T (Fab, V domains shown)
VH: QIQLVQSGPELKKPGETVKISCKASGYTFTKYGMNWVKQAPGKGLKWMGWINTYTEEPTYGDDFKGRFAFSLETSASTANLQINNLKSEDTATYFCARFGSAVDYWGQGTSVTVSS
VL: DIVMTQAAFSNPVTLGTSGSISCRSSKSLLHSNGITYLYWYLQKPGQSPQLLIYQTSNLASGVPDRFSSSGSGTDFTLRISRVEAEDVGVYYCAQNLELPRTFGGGTKLEMKR
notes: Fab in periplasmic extract
fold difference in affinity vs original ING-1 [1]: 0.8 fold

B2: ING-1 Fab, light chain S57G (Fab, V domains shown)
VH: B1 VH
VL: B1 VL with T56M, S57G
notes: Fab in periplasmic extract
binding result [1]: no binding

B3: ING-1 Fab, light chain R101P (Fab, V domains shown)
VH: B1 VH
VL: B1 VL with T56M, R101P
notes: Fab in periplasmic extract
binding result [1]: no binding

B4: ING-1 Fab, light chain Y37T (Fab, V domains shown)
VH: B1 VH
VL: B1 VL with Y37T, T56M
notes: Fab in periplasmic extract
binding result [1]: no binding

B5: ING-1 Fab, light chain P100L (Fab, V domains shown)
VH: B1 VH
VL: B1 VL with T56M, P100L
notes: Fab in periplasmic extract
fold difference in affinity vs original ING-1 [1]: 0.03 fold

B6: ING-1 Fab, light chain R101T (Fab, V domains shown)
VH: B1 VH
VL: B1 VL with T56M, R101T
notes: Fab in periplasmic extract
binding result [1]: no binding

B7: ING-1 Fab, light chain N33V (Fab, V domains shown)
VH: B1 VH
VL: B1 VL with N33V, T56M
notes: Fab in periplasmic extract
binding result [1]: no binding

B8: ING-1 Fab, light chain R101G (Fab, V domains shown)
VH: B1 VH
VL: B1 VL with T56M, R101G
notes: Fab in periplasmic extract
binding result [1]: no binding

B9: ING-1 Fab, light chain Y37I (Fab, V domains shown)
VH: B1 VH
VL: B1 VL with Y37I, T56M
notes: Fab in periplasmic extract
fold difference in affinity vs original ING-1 [1]: 0.9 fold

B10: ING-1 Fab, light chain R101I (Fab, V domains shown)
VH: B1 VH
VL: B1 VL with T56M, R101I
notes: Fab in periplasmic extract
binding result [1]: no binding

B11: ING-1 Fab, light chain N33T (Fab, V domains shown)
VH: B1 VH
VL: B1 VL with N33T, T56M
notes: Fab in periplasmic extract
fold difference in affinity vs original ING-1 [1]: 0.6 fold

B12: ING-1 Fab, light chain Y54I (Fab, V domains shown)
VH: B1 VH
VL: B1 VL with Y54I, T56M
notes: Fab in periplasmic extract
binding result [1]: no binding

B13: ING-1 Fab, light chain Y54A (Fab, V domains shown)
VH: B1 VH
VL: B1 VL with Y54A, T56M
notes: Fab in periplasmic extract
fold difference in affinity vs original ING-1 [1]: 0.08 fold

B14: ING-1 Fab, light chain M56V (Fab, V domains shown)
VH: B1 VH
VL: B1 VL with T56V
notes: Fab in periplasmic extract
binding result [1]: no binding

B15: ING-1 Fab, light chain Y37V (Fab, V domains shown)
VH: B1 VH
VL: B1 VL with Y37V, T56M
notes: Fab in periplasmic extract
binding result [1]: no binding

B16: ING-1 Fab, light chain R101V (Fab, V domains shown)
VH: B1 VH
VL: B1 VL with T56M, R101V
notes: Fab in periplasmic extract
binding result [1]: no binding

B17: ING-1 Fab, light chain R101A (Fab, V domains shown)
VH: B1 VH
VL: B1 VL with T56M, R101A
notes: Fab in periplasmic extract
binding result [1]: no binding

B18: ING-1 Fab, light chain Y37A (Fab, V domains shown)
VH: B1 VH
VL: B1 VL with Y37A, T56M
notes: Fab in periplasmic extract
fold difference in affinity vs original ING-1 [1]: 0.04 fold

B19: ING-1 Fab, light chain P100A (Fab, V domains shown)
VH: B1 VH
VL: B1 VL with T56M, P100A
notes: Fab in periplasmic extract
fold difference in affinity vs original ING-1 [1]: 0.05 fold

B20: ING-1 Fab, light chain Q55G (Fab, V domains shown)
VH: B1 VH
VL: B1 VL with Q55G, T56M
notes: Fab in periplasmic extract
fold difference in affinity vs original ING-1 [1]: 0.7 fold

B21: ING-1 Fab, light chain P100T (Fab, V domains shown)
VH: B1 VH
VL: B1 VL with T56M, P100T
notes: Fab in periplasmic extract
fold difference in affinity vs original ING-1 [1]: 0.08 fold

B22: XPA23 heavy chain D106A (Fab, V domains shown)
VH: EVQLLESGGGLVQPGGSLRLSCAASGFTFSKYFMFWVRQAPGKGLEWVSVISPSGGMTRYADSVKGRFTISRDNSKNTLYLQMNSLRAEDTAVYYCARVGYGGNSAYWGQGTLVTVSS
VL: DIQMTQSPSSVSASVGDRLTIICRASQDINRWLAWYQQTPGNAPKLLIHSATSLQSGVPSRFSGSGSGTDFTLTINSLQPEDFATYYCQQADSFPLTFGGGTKVEIK
notes: Fab, periplasmic extract; also called C5A D106A
binding result [2]: no binding

B23: XPA23 heavy chain G102L (Fab, V domains shown)
VH: B22 VH with G102L, A106D
VL: B22 VL
notes: Fab, periplasmic extract; also called C5A G102L
binding result [2]: no binding

B24: XPA23 heavy chain G100L (Fab, V domains shown)
VH: B22 VH with G100L, A106D
VL: B22 VL
notes: Fab, periplasmic extract; also called C5A G100L
binding result [2]: no binding

B25: XPA23 heavy chain D106L (Fab, V domains shown)
VH: B22 VH with A106L
VL: B22 VL
notes: Fab, periplasmic extract; also called C5A D106L
binding result [2]: no binding

B26: XPA23 heavy chain D106T (Fab, V domains shown)
VH: B22 VH with A106T
VL: B22 VL
notes: Fab, periplasmic extract; also called C5A D106T
binding result [2]: no binding

B27: XPA23 heavy chain G102A (Fab, V domains shown)
VH: B22 VH with G102A, A106D
VL: B22 VL
notes: Fab, periplasmic extract; also called C5A G102A
binding result [2]: no binding

B28: XPA23 heavy chain D106P (Fab, V domains shown)
VH: B22 VH with A106P
VL: B22 VL
notes: Fab, periplasmic extract; also called C5A D106P
binding result [2]: no binding

B29: XPA23 heavy chain G100P (Fab, V domains shown)
VH: B22 VH with G100P, A106D
VL: B22 VL
notes: Fab, periplasmic extract; also called C5A G100P
binding result [2]: no binding

B30: XPA23 heavy chain D106I (Fab, V domains shown)
VH: B22 VH with A106I
VL: B22 VL
notes: Fab, periplasmic extract; also called C5A D106I
binding result [2]: no binding

B31: XPA23 heavy chain D106V (Fab, V domains shown)
VH: B22 VH with A106V
VL: B22 VL
notes: Fab, periplasmic extract; also called C5A D106V
binding result [2]: no binding
